Results on two molecules are retold here after patent US20150098945A1 (Daiichi Sankyo, published 2015).

Assay [1] concerns the target T1, rat ROBO4 (pCI-raROBO4-transfected HEK293 cells) (rat, UniProt Q80W87 38-949 at identity 0.93)).
T1 chain: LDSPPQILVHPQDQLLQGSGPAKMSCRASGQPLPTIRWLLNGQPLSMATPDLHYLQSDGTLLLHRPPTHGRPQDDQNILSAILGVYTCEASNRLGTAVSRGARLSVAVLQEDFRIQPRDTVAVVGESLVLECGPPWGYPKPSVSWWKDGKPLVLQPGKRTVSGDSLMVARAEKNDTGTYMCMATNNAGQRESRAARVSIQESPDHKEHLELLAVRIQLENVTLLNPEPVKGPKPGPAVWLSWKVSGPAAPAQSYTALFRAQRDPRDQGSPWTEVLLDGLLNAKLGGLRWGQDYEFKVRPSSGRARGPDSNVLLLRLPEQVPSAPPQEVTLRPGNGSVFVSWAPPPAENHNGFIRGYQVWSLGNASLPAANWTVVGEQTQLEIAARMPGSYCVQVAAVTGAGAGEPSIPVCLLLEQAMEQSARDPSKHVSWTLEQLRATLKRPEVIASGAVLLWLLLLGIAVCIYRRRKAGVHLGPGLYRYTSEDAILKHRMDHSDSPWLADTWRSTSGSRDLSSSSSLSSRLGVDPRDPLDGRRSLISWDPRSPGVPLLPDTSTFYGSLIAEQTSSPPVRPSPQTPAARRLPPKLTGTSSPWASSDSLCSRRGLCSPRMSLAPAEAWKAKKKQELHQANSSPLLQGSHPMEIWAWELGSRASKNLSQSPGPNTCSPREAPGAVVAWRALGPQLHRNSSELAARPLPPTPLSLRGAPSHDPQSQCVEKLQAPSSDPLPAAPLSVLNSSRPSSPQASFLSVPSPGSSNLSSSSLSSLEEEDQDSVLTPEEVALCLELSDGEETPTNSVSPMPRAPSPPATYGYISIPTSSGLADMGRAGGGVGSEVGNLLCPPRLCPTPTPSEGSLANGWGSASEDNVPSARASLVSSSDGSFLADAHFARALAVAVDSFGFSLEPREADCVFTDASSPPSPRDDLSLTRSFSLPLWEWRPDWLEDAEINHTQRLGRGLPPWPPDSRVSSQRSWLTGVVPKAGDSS
Description: flow cytometry (FC500), HEK293 cells transfected with pCI-raROBO4, FITC goat anti-human IgG Fc; control histogram IgG (human IgG).

The target of assay [2] is T2, N-terminal FLAG-tagged human ROBO4 extracellular region/domain deletion variant hROBO4-225 (human, UniProt Q8WZ75 225-1007).
T2 construct: On transfected HEK293 cells
T2 sequence: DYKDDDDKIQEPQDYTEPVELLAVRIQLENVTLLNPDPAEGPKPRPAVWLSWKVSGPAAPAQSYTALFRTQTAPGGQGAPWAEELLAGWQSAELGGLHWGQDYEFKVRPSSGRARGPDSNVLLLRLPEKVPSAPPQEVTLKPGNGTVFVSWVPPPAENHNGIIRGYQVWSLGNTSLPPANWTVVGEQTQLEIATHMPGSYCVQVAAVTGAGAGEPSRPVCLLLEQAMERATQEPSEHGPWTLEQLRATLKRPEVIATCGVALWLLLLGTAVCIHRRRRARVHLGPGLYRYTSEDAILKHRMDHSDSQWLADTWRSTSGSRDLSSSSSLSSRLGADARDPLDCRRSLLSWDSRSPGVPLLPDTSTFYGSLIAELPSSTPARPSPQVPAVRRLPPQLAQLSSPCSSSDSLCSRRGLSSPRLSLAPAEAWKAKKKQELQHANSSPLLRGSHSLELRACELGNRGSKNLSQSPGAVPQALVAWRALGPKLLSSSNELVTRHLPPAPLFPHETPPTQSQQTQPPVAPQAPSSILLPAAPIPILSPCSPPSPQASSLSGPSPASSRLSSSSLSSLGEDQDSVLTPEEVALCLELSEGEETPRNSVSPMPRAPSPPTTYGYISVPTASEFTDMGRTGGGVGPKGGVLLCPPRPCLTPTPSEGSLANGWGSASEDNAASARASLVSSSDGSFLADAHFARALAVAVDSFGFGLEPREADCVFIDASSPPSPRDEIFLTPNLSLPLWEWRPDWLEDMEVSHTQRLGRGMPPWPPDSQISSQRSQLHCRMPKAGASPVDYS
Description: flow cytometry, HEK293 cells transfected with pCI-FLAG-hROBO4-225, anti-mouse IgG FITC; control histogram IgG (Mouse IgG2a). The procedure: Each cell suspension prepared in 4)-5-1 was centrifuged, and the supernatant was removed. Then, MAb1, a positive control Monoclonal ANTI-FLAG M2 antibody produced in mouse, or a negative control Mouse IgG2a was added at a concentration of 10 μg/mL to 2×10⁵ expression vector-transfected cells, and the resulting suspension was left standing at 4° C. for 1 hour. The cells were washed once with PBS containing 5% FBS. Then, Anti-Mouse IgG FITC conjugate diluted 1000-fold with PBS containing 5% FBS was added thereto, and the resulting suspension was left standing at 4° C. for 1 hour. The cells were washed with three times with PBS containing 5% FBS, then resuspended in PBS containing 5% FBS, and subjected to detection using a flow cytometer (BD FACSCalibur; BD Biosciences). Data was analyzed using Flowjo. The histogram of FITC fluorescence intensity was prepared. The antibody was determined to bind to a cell when the histogram of MAb1 was shifted to a stronger fluorescence intensity region compared with the histogram of the negative control Mouse IgG2a. […] In this context, each intracellular region/domain deletion variant was confirmed to be expressed on the cell membrane using the positive control anti-FLAG antibody (FIG. 9).

B1: humanized MAb1 antibody H-2143 (antibody, human IgG2, kappa, V domains shown)
VH: EVQLVESGGGLVQPGGSLRLSCAASGFTFSTYAMSWVRQAPGKRLEWVATISQGGTYTYYPDSVKGRFTISRDNAKNTLYLQMNSLRAEDTAVYYCARLIYYDYLDYWGQGTLVTVSS
VL: DIVMTQSPLSLPVTLGEPASISCRSSQSLENENKNLYLNWYLQKPGQSPQLLIYRVSNRFSGVPDRFSGSGSGTDFTLKISRVEAEDVGVYYCLQVTHVPWTFGPGTKVDIKR
notes: Human IgG2 / kappa constant regions; also called hMAb1-H4-type heavy chain + hMAb1-L2-type light chain
As for B1, the binding result in assay [1] was “no binding (tested: 10 µg/mL)”.

B2: anti-ROBO4 mouse monoclonal antibody MAb1 (antibody, mouse IgG1, V domains shown)
VH: EVQLVESGGGLVKPGGSLKLSCAASGFTFSTYAMSWVRQTPEKRLEWVATISNGGTYTYYPDSVKGRFTISRDNAENTLYLQMSSLRSEDTAMYFCARLIYYDYLDYWGHGTTLTVSS
VL: DAVMTQTPLSLPVSLGDQASISCRSSQSLENSNGNTYLNWYFQKPGQSPQLLIYRVSNRFSGVLDRFSGSGSGTDFTLKISRVEAEDFGVYFCLQVTHVPWTFGGGTKLEIKR
notes: Mouse IgG1 (gamma1), kappa light chain, purified from hybridoma supernatant; also called parent antibody MAb1
Consider B2, for which, in assay [2], the binding result is recorded as “no binding (tested: 10 µg/mL)”.
